Laboratory results published in the supplement of paper PMC10201428.
± gives the standard deviation of the averaged measurements.

B1: library; a variant is named by its letters at N, in order (parent)
chain: ACATTTGTTGATACAACCATAAAATGATAATTACACCCATAAATTGATAATTATCACACCCANNNNNNNNNNNNNNCTCTGATCATAGTCAGACCAACATTGCTACGACCCGTATTCGCACCGACAC

Key:
[1] = variants of: B1; experiment: relative integration efficiency (T-RL orientation) vs wild-type transposon end (log2 (normalized fold change)); transposon end mutated: right end (5 bp flank + 75 bp right end); higher = more efficient transposition; conditions: with VchCAST RNA-guided transposition machinery (E. coli BL21(DE3) host, lacZ target)
Method: (§1)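 Pooled, barcoded VchCAST (Tn6677) mini-transposon donor libraries; each variable transposon-end sequence sits in a fixed pDonor mini-transposon context (10-bp barcode and cargo not included). Left- or right-end libraries were co-transformed with pEffector (TniQ-Cascade, TnsABC, lacZ crRNA, T7, 0.1 mM IPTG) into E. coli BL21(DE3) and grown 18 h at 37 C. T-LR and T-RL junction amplicons were sequenced; output/input barcode fold change was normalised to the mean of four wild-type barcodes and log2-transformed. Two biological replicates; zero-count/undetected variants carry floor values (-10 / -15), censored here. Barcode uncoupling by PCR recombination adds noise.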

[2] = variants of: B1; experiment: relative integration efficiency (T-LR orientation) vs wild-type transposon end (log2 (normalized fold change)); transposon end mutated: right end (5 bp flank + 75 bp right end); higher = more efficient transposition; conditions: with VchCAST RNA-guided transposition machinery (E. coli BL21(DE3) host, lacZ target)
Method: as §1

| Variant | relative integration efficiency (log2) [1] | relative integration efficiency (log2) [2] |
| --- | --- | --- |
| TAAATTGATATCGC | 0.0222 ± 0.012 | -0.0692 ± 0.048 |
| TAAATTGATATGTA C77A | -0.158 ± 0.089 | 0.332 ± 0.19 |
| TAAATCGATATTGC | -0.159 ± 0.022 | 0.237 ± 0.063 |
| TAAATTGATATTGA | 0.138 ± 0.028 | 0.0994 ± 0.1 |
| TAAATTGATATTGC | -0.0034 ± 0.1 | -0.0165 ± 0.24 |
| TAAATGTATATTGC | -0.000422 ± 0.028 | 2.416 ± 0.0088 |
| TAAATTGACATTGC | -0.167 ± 0.015 | 0.353 ± 0.12 |
| GAAATTGATATTGC A62C | -0.604 ± 0.16 | 2.52 ± 0.065 |
| TAAATTGATATTGC A49G | -0.49 ± 0.084 | -0.155 ± 0.12 |
| TAAATTGATATTGC A49C | -0.518 ± 0.15 | -0.614 ± 0.38 |
| TAAATTGATATTGC A49T | -0.47 ± 0.16 | 0.117 ± 0.012 |
| TAAATTGATATTGC A43G | -0.0412 ± 0.15 | -0.246 ± 0.17 |
| TAAATTGATATTGC A43C | -0.127 ± 0.027 | -0.0895 ± 0.24 |
| TAAATTGATATTGC A43T | -0.127 ± 0.0053 | -0.303 ± 0.3 |
| TAAAAACTTATTGC | -0.368 ± 0.07 | 2.34 ± 0.09 |
| TAAATTGATATTGC A1C | -0.117 ± 0.016 | -0.165 ± 0.27 |
| TAAATTGATATTGC A1G | -0.139 ± 0.068 | -0.251 ± 0.32 |
| TAAATTGATATTGC A1T | -0.0487 ± 0.062 | -0.0517 ± 0.26 |
| TAAATTGATAGGGC | 0.0268 ± 0.029 | 1.18 ± 0.057 |

| Variant | relative integration efficiency (log2) [1] | relative integration efficiency (log2) [2] |
| --- | --- | --- |
| TAAAATGATAATTA C59A | 0.000716 ± 0.075 | -0.0217 ± 0.15 |
| TAAATTGATAATGC | 0.111 ± 0.029 | 0.354 ± 0.21 |
| TAAATTGATATTGC C55A | -0.759 ± 0.066 | 0.402 ± 0.41 |
| TAAATTGATATTGC C55G | -0.145 ± 0.21 | 0.0542 ± 0.17 |
| TAAATTGATAAAGC | -0.251 ± 0.025 | 0.6224 ± 0.0024 |
| TAAATGTCGATTGC | -0.671 ± 0.07 | 2.165 ± 0.0045 |
| TAAATTGATATTGC A56C | -0.0165 ± 0.22 | 0.317 ± 0.21 |
| TAAATTGATATTGC A56T | -0.4 ± 0.052 | 0.0769 ± 0.005 |
| TAAATTGATATTGC A56G | -0.248 ± 0.083 | 0.362 ± 0.33 |
| TAAATTCTATTTGC | -0.619 ± 0.18 | 2.22 ± 0.053 |
| TAAATTCATATTGC | -0.149 ± 0.23 | 2.62 ± 0.096 |
| TAAATTGATATTGC A15C | 0.297 ± 0.19 | 0.449 ± 0.3 |
| TAAATTGATATTGC A15T | -0.218 ± 0.022 | -0.624 ± 0.069 |
| TAAATTGATATTGC A15G | -0.381 ± 0.0063 | -0.228 ± 0.029 |
| TAAATTGATATTGC A58C | -0.461 ± 0.11 | 1.05 ± 0.17 |
| TAAATTGATATTGC A58T | -0.281 ± 0.054 | 1.17 ± 0.41 |
| TAAATTGATATTGC A58G | -0.236 ± 0.0068 | 1.32 ± 0.19 |
| TAAATTGATATTGC A47G | -0.0921 ± 0.17 | -0.453 ± 0.42 |
| TAAATTGATATTGC A47C | -0.409 ± 0.05 | -0.216 ± 0.54 |

| Variant | relative integration efficiency (log2) [1] | relative integration efficiency (log2) [2] |
| --- | --- | --- |
| TAAATTGATATTGC A47T | -0.574 ± 0.2 | -0.552 ± 0.16 |
| TAAATTGATATTGC A16C | -0.0617 ± 0.0049 | 0.0173 ± 0.062 |
| TAAATTGATATTGC A16T | -0.582 ± 0.072 | -0.311 ± 0.2 |
| TAAATTGATATTGC A16G | -0.119 ± 0.073 | -0.0536 ± 0.39 |
| TAAATTGATATTGC C34A | -0.0537 ± 0.0045 | 0.162 ± 0.16 |
| TAAATTGATATTGC C34T | -1.32 ± 0.14 | -0.474 ± 0.43 |
| TAAATTGATATTGC C34G | -0.73 ± 0.11 | -0.479 ± 0.0065 |
| TAAATTGATATTGC A42C | -0.945 ± 0.052 | -0.708 ± 0.35 |
| TAAATTGATATTGC A42G | -0.807 ± 0.11 | -1.01 ± 0.016 |
| TAAATTGATATTGC A42T | 0.0512 ± 0.029 | -0.0993 ± 0.22 |
| TAAATTGATATTGC A3T | -0.114 ± 0.0076 | -0.195 ± 0.15 |
| TAAATTGATATTGC A3C | -0.109 ± 0.047 | -0.337 ± 0.37 |
| TAAATTGATATTGC A3G | 0.00116 ± 0.033 | 0.0517 ± 0.23 |
| TAAATTGAGATTGC | -0.3392 ± 0.00035 | 0.765 ± 0.23 |
| TAAAAAGATATTGC | -0.0646 ± 0.032 | 1.04 ± 0.075 |
| TAAATTGATATACG C77G | 0.221 ± 0.0027 | 0.3 ± 0.0057 |
| TAAAGGGATATTGC | -0.254 ± 0.0064 | 1.63 ± 0.069 |
| TAAATTGATATTGC A21T | 0.0476 ± 0.12 | -0.217 ± 0.052 |
